Experiment [1] deals with biotin-labeled UB2H domain of P. aeruginosa PBP1B (P. aeruginosa). The experiment can be described thus: BLI; UB2H-Biot (25 μg/ml) immobilised on streptavidin biosensors (OctetRED96e); LpoP 0 to 6 μM; HBS-T (10 mM Hepes pH 7.5, 150 mM NaCl, 0.02% Tween); 23°C; responses at equilibrium of two series fitted together. (Biolayer interferometry detects binding as a change in optical thickness at a sensor tip.)

Experiment [2] addresses P. aeruginosa PBP1B (P. aeruginosa PA01). The experiment can be described thus: SPR; PaPBP1B immobilised on a GLC amine coupling sensorchip (BioRad ProteOn XPR36); analyte in 1:1 serial dilution from 10 μM to 19.5 nM; 25°C; 75 μL/min, 5 min injection; 10 mM Tris/HCl, 150 mM NaCl, 0.05% Triton X-100, pH 7.5; response at equilibrium, non-linear regression assuming one-site saturation.

Experiment [3] has the same target.
The target of experiment [4] is P. aeruginosa CpoB lacking its periplasmic export sequence (residues 22-274) (P. aeruginosa PA01). The experiment can be described thus: SEC; PaCpoB alone, last step of its purification, procedure as for LpoP. On the technique in general: Size exclusion chromatography separates by hydrodynamic size, large species first.

Sequence of biotin-labeled UB2H domain of P. aeruginosa PBP1B (P. aeruginosa) (main, as listed by the source): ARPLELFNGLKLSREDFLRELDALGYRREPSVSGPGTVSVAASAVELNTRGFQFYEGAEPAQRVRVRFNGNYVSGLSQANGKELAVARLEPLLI

As usually defined, the Kd is the free concentration of one partner at which half of the binding sites on the other are occupied at equilibrium, for simple one-to-one binding. Read a low Kd as tighter binding. In turn, “LpoP (residues 20-259), preparation for NMR and BLI (natural protein)” registered a Kd in experiment [1] of 0.4 µM. Consider “LpoP lacking its lipoprotein sorting sequence (residues 20-259) (natural protein)”, for which the Kd in experiment [2] is 4.2 µM. In experiment [3], this substance displayed a GTase rate of PaPBP1B with and without LpoP (continuous fluorescence assay, 0.5 μM PaPBP1B, 10 μM LpoP, 37°C) of 4.5 fold; a transpeptidation products made by PaPBP1B with and without LpoP (endpoint TPase assay with radiolabelled lipid II, 10 μM LpoP, 37°C, 3 h) of 2 fold. The term stoichiometry N denotes a count of units in the complex or per binding partner. “P. aeruginosa CpoB lacking its periplasmic export sequence (residues 22-274) (natural protein)”: in experiment [4], the stoichiometry N amounted to 3.
